Laboratory results from patent US8840891 (RSR, dated 2014).

Biological target: human TSHR, wild type, expressed on CHO cells (human) (UniProt P16473)
Test: cell-based or functional assay

cyclic AMP; Exp 1; recombinant human TSH 100 ng/mL + 5C9 IgG 0.1 µg/mL: 0.12 pmol/mL
cyclic AMP; Exp 1; recombinant human TSH 100 ng/mL + 5C9 IgG 1.0 µg/mL: 0.1 pmol/mL
cyclic AMP; Exp 1; recombinant human TSH 100 ng/mL + 5C9 IgG 10 µg/mL: 0.12 pmol/mL
cyclic AMP; Exp 1; recombinant human TSH 100 ng/mL + 5C9 IgG 100 µg/mL: 0.19 pmol/mL
cyclic AMP; Exp 2; 5C9 1 µg/mL + TSH 3 ng/mL: 6.1 pmol/mL
cyclic AMP; Exp 2; 5C9 10 µg/mL + TSH 3 ng/mL: 3.1 pmol/mL
cyclic AMP; Exp 2; 5C9 10 µg/mL only: 0.4 pmol/mL
cyclic AMP; Exp 2; native human TSH 100 ng/mL + 5C9 IgG 0.001 µg/mL: 37.6 pmol/mL
cyclic AMP; Exp 2; native human TSH 100 ng/mL + 5C9 IgG 0.01 µg/mL: 34.4 pmol/mL
cyclic AMP; Exp 2; native human TSH 100 ng/mL + 5C9 IgG 0.1 µg/mL: 15.8 pmol/mL
cyclic AMP; Exp 2; native human TSH 100 ng/mL + 5C9 IgG 1.0 µg/mL: 0.13 pmol/mL
cyclic AMP; Exp 2; native human TSH 100 ng/mL + 5C9 IgG 10 µg/mL: 0.18 pmol/mL
cyclic AMP; Exp 2; native human TSH 100 ng/mL + 5C9 IgG 100 µg/mL: 0.21 pmol/mL
cyclic AMP; Exp 2; native porcine TSH 0.3 ng/mL + 5C9 IgG 0.001 µg/mL: 32.7 pmol/mL
cyclic AMP; Exp 2; native porcine TSH 0.3 ng/mL + 5C9 IgG 0.01 µg/mL: 28.2 pmol/mL
cyclic AMP; Exp 2; native porcine TSH 0.3 ng/mL + 5C9 IgG 0.1 µg/mL: 18 pmol/mL
cyclic AMP; Exp 2; native porcine TSH 0.3 ng/mL + 5C9 IgG 1.0 µg/mL: 2.14 pmol/mL
cyclic AMP; Exp 2; native porcine TSH 0.3 ng/mL + 5C9 IgG 10 µg/mL: 0.2 pmol/mL
cyclic AMP; Exp 2; native porcine TSH 0.3 ng/mL + 5C9 IgG 100 µg/mL: 0.18 pmol/mL
cyclic AMP; Exp 2; recombinant human TSH 100 ng/mL + 5C9 IgG 0.001 µg/mL: 20 pmol/mL
cyclic AMP; Exp 2; recombinant human TSH 100 ng/mL + 5C9 IgG 0.01 µg/mL: 20.6 pmol/mL
cyclic AMP; Exp 2; recombinant human TSH 100 ng/mL + 5C9 IgG 0.1 µg/mL: 7.39 pmol/mL
cyclic AMP; Exp 2; recombinant human TSH 100 ng/mL + 5C9 IgG 1.0 µg/mL: 0.07 pmol/mL
cyclic AMP; Exp 2; recombinant human TSH 100 ng/mL + 5C9 IgG 10 µg/mL: 0.07 pmol/mL
cyclic AMP; Exp 2; recombinant human TSH 100 ng/mL + 5C9 IgG 100 µg/mL: 0.11 pmol/mL
cyclic AMP; Exp 3; 5C9 0.01 µg/mL + TSH 3 ng/mL: 33.9 pmol/mL
cyclic AMP; Exp 3; 5C9 0.1 µg/mL + TSH 3 ng/mL: 18.7 pmol/mL
cyclic AMP; Exp 3; 5C9 1 µg/mL + TSH 3 ng/mL: 5.4 pmol/mL
cyclic AMP; Exp 3; 5C9 10 µg/mL + TSH 3 ng/mL: 1.9 pmol/mL
cyclic AMP; Exp 3; 5C9 100 µg/mL + TSH 3 ng/mL: 1.4 pmol/mL
cyclic AMP; Exp 3; 5C9 100 µg/mL only: 0.5 pmol/mL
cyclic AMP; Exp 3; native human TSH 100 ng/mL + 5C9 IgG 0.001 µg/mL: 36 pmol/mL
cyclic AMP; Exp 3; native human TSH 100 ng/mL + 5C9 IgG 0.01 µg/mL: 28.4 pmol/mL
cyclic AMP; Exp 3; native human TSH 100 ng/mL + 5C9 IgG 0.1 µg/mL: 7.22 pmol/mL
cyclic AMP; Exp 3; native human TSH 100 ng/mL + 5C9 IgG 1.0 µg/mL: 0.67 pmol/mL
cyclic AMP; Exp 3; native human TSH 100 ng/mL + 5C9 IgG 10 µg/mL: 0.8 pmol/mL
cyclic AMP; Exp 3; native human TSH 100 ng/mL + 5C9 IgG 100 µg/mL: 1.35 pmol/mL
cyclic AMP; Exp 3; native porcine TSH 0.3 ng/mL + 5C9 IgG 0.001 µg/mL: 38.2 pmol/mL
cyclic AMP; Exp 3; native porcine TSH 0.3 ng/mL + 5C9 IgG 0.01 µg/mL: 26.6 pmol/mL
cyclic AMP; Exp 3; native porcine TSH 0.3 ng/mL + 5C9 IgG 0.1 µg/mL: 10.1 pmol/mL
cyclic AMP; Exp 3; native porcine TSH 0.3 ng/mL + 5C9 IgG 1.0 µg/mL: 2.28 pmol/mL
cyclic AMP; Exp 3; native porcine TSH 0.3 ng/mL + 5C9 IgG 10 µg/mL: 0.68 pmol/mL
cyclic AMP; Exp 3; native porcine TSH 0.3 ng/mL + 5C9 IgG 100 µg/mL: 1.03 pmol/mL
cyclic AMP; Exp 3; recombinant human TSH 100 ng/mL + 5C9 IgG 0.001 µg/mL: 25.6 pmol/mL
cyclic AMP; Exp 3; recombinant human TSH 100 ng/mL + 5C9 IgG 0.01 µg/mL: 22.9 pmol/mL
cyclic AMP; Exp 3; recombinant human TSH 100 ng/mL + 5C9 IgG 0.1 µg/mL: 1.18 pmol/mL
cyclic AMP; Exp 3; recombinant human TSH 100 ng/mL + 5C9 IgG 1.0 µg/mL: 0.81 pmol/mL
cyclic AMP; Exp 3; recombinant human TSH 100 ng/mL + 5C9 IgG 10 µg/mL: 0.74 pmol/mL
cyclic AMP; Exp 3; recombinant human TSH 100 ng/mL + 5C9 IgG 100 µg/mL: 0.88 pmol/mL
cyclic AMP; Exp 4; 5C9 0.1 µg/mL + TSH 0.3 ng/mL: 6.2 pmol/mL
cyclic AMP; Exp 4; 5C9 1 µg/mL + TSH 0.3 ng/mL: 1.65 pmol/mL
cyclic AMP; Exp 4; 5C9 10 µg/mL + TSH 0.3 ng/mL: 0.23 pmol/mL
cyclic AMP; Exp 4; 5C9 100 µg/mL + TSH 0.3 ng/mL: 0.29 pmol/mL
cyclic AMP; Exp 4; 5C9 100 µg/mL only: 0.15 pmol/mL
cyclic AMP; Exp 5; 5C9 0.1 µg/mL + TSH 0.3 ng/mL: 12.4 pmol/mL
cyclic AMP; Exp 5; 5C9 1 µg/mL + TSH 0.3 ng/mL: 2.57 pmol/mL
cyclic AMP; Exp 5; 5C9 5 µg/mL + TSH 0.3 ng/mL: 1.21 pmol/mL
cyclic AMP; Exp 5; 5C9 10 µg/mL + TSH 0.3 ng/mL: 1.17 pmol/mL
cyclic AMP; Exp 5; 5C9 10 µg/mL only: 0.38 pmol/mL
cyclic AMP; TSMAb 1 1 µg/mL + 5C9 IgG 100 µg/mL: 1.24 pmol/mL
cyclic AMP; TSMAb 2 1 µg/mL + 5C9 IgG 100 µg/mL: 2.26 pmol/mL
cyclic AMP; TSMAb 4 10 ng/mL + 5C9 IgG 100 µg/mL: 2.2 pmol/mL
cyclic AMP; TSMAb 5 100 ng/mL + 5C9 IgG 100 µg/mL: 0.85 pmol/mL
cyclic AMP; TSMAb 7 100 ng/mL + 5C9 IgG 100 µg/mL: 1.26 pmol/mL
B1: 5C9 IgG (human monoclonal autoantibody to the TSHR) (antibody, from another filing, V domains shown)
VH: EVQLVESGGGLIQPGGSLRLSCAASGFTVSSNYMSWVRQAPGKGLEWVSVTYSGGSTSYADSVKGRFTISRDNSKNTLYLQMNSLRAEDTAVYYCARGGRYCSSISCYARSGCDYWGQGTLVTVSS
VL: AIQMTQSPSSLSASVGDRVTITCRASQSISNYLNWYQQKPGKAPKLLIYAASSLQSGVPSRFSGSGSGTDFTLTISSLQPEDFATYYCQQSYSSPSTTFGQGTKLEIK
